Tested on: MS2 coat protein
Assay: apparent KD of MS2 coat protein; designed switch direction (-1 OFF switch, 1 ON switch): -1; higher = weaker reporter binding
In short: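 Transcription of designed RNA switches on Illumina chips was done by stalled E. coli RNA polymerase. SNAP-549-labelled MS2 coat protein was then titrated in doubling steps from 0.7 or 1.5 nM to 3 µM, with steps of 0.8–1.5 h at the lowest and 10–20 min at the highest concentration. The per-design median over clusters of curve-fitted normalised fluorescence is reported as apparent KD.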

[1] = input ligand: microRNA oligo, concentration not stated
[2] = Eterna round: R95, input ligand: microRNA oligo, concentration not stated
[3] = Eterna round: R95, input ligand: FMN 200 uM
[4] = Eterna round: R95, input ligand: none

Sequence | apparent KD of MS2 coat protein (input ligand: FMN 200 uM) | apparent KD of MS2 coat protein [1] | apparent KD of MS2 coat protein (input ligand: none) | apparent KD of MS2 coat protein [2] | apparent KD of MS2 coat protein [3] | apparent KD of MS2 coat protein [4]
CACCGUUACUGAGGAUAUCCUACAUGAGGAUCACCCAUGUAAUAAAUGAGAAUUUCGGAUGUAUUGGAGAAGGCAGAAAUCGGC [Ostricism 62 - Jieux - Exclusion NG 2] (Eterna round: R96, puzzle: Exclusion NG 2) | 52.7 nM | 48.4 nM | 58.4 nM |  |  | 
GUUUUCAGACGGAGAUCCUACAUGAGGAUCACCCAUGUCUCUCUUGUUUUUUGCUCGUCUUUUCCUCCUCUGUUCUC [Elimod 32 - Jieux - Sensor, turn-off variant 1] (Eterna round: R97, puzzle: Sensor, turn-off variant 1) | 447 nM |  | 515 nM |  |  | 
AAUAAUGAGUAGGAUAUCACUAGCGAUAGCUAGUGAGAAGGGCUCACAUGAGGAUCACCCAUGUGUUCCAAUAA [Mod4 Ex6/6-A4 by Brourd] (Eterna round: R97, puzzle: Exclusion 6) | 88.1 nM |  | 31.2 nM |  |  | 
AAUAAUAAGGAGGAUAUCGUAUCGGAAACGAUACGAGAAGGUCUAACAUGAGGAUCACCCAUGUUCCUCAAAUA [Mat - Exclusion 6 - Eli Mod - D44] (puzzle: Exclusion 6) |  |  |  | 37.1 nM |  | 
CUCUUGUGAGGAUAUCAGGUGUGCUAGCGUACUGGUACAUCUGAGAAGGCACAUGAGGAUCACCCAUGUUUCAA [Mat - Exclusion 4 - Mod of JL - D41] (puzzle: Exclusion 4) |  |  |  | 52.5 nM |  | 
GGUUUCGUAGGAUAUCAUCGAGUAAACAUGAGGAUCACCCAUGUGAGGUCGGCUUGCUCUUGAGAAGGAUGAAUGG [EX5 B.13] (Eterna round: R97, puzzle: Exclusion 5) | 40.1 nM |  | 34 nM |  |  | 
UCUCGUUGGCAAGGAUAUCCUACAUUGUUCUGGCCCGGGCAUGCUACAUGAGGAUCACCCAUGUGGGAGAAGGUGCGCCACUGC [Design 25] (Eterna round: R96, puzzle: Exclusion NG 2) | 95.5 nM | 67.6 nM | 108 nM |  |  | 
AACAGUACAGGAUAUACAUGAGGAUCACCCAUGUGAGAUUUAAGUGGCGUACCACAAAGUAGAAGGGUACUGGA [JL Maslow Revisted mod 5] (Eterna round: R96, puzzle: Exclusion 3) | 230 nM | 29.6 nM | 37.3 nM |  |  | 
CUUUUGUGAGGAUAUCAGUAGUAAAUAUAUAAAAUUACUACUGAGAAGGCACAUGAGGAUCACCCAUGUUCCUC [salish99_ex3_r3_079] (puzzle: Exclusion 4) |  |  |  | 38.8 nM |  | 
GAAAAGAAGCUAGGAUAUGCAUGACGGAUACCCGUGAGCACGUAGCAGACAUGAGGAUCACCCAUGUAGAAGGAGCGAAGAAAU [Veteriat] (Eterna round: R96, puzzle: Exclusion NG 2) | 251 nM | 43.6 nM | 52.8 nM |  |  | 
AUGAGCAGACGGAGAUCCAACAUGAGGAUCACCCAUGUCUCAUAAGCUUUUUGUUCAUCUUAUUGUACCUUGGUGCU [Mat - Sensor v3 - turn-off var 1 - JL Mod - D22] (puzzle: Sensor v3, turn-off variant 1) |  |  |  | 12.6 nM | 53.7 nM | 67.7 nM
CUAGUCCGAGGAUAUAUUAAGUGAUACAUGAGGAUCACCCAUGUUAUUUAAUGGAUAUUAAUAGAAGGCGGACUAG [Mat - Exclusion 5 - JL mod - D78] (puzzle: Exclusion 5) |  |  |  | 32.1 nM | 42.6 nM | 31.3 nM
AGUAGUUGUUUCCGUUCUUACAUGAGGAUCACCCAUGUUUCUUGUCGUGCUCGCGUUGCUCGUCAGACUUCCUGUUG [salish99_TOv1_r3_063] (Eterna round: R96, puzzle: Sensor v3, turn-off variant 1) | 87.5 nM | 49.5 nM | 76.6 nM |  |  | 
UUAAUUAAUUAAGGCUGAAGAUCACAUGAGGAUCACCCAUGUAAGGAUAUCAGCUCGUUUAGAGCUGAGAAGGUACAUGCAGCC [ExNG3/18-B2] (Eterna round: R96, puzzle: Exclusion NG 3) | 160 nM | 568 nM | 370 nM |  |  | 
CUCGAGUUAGGAUAUGGCGGCGACUGUGUUCGCAGAUCGCACCAGAAGGAACAUGAGGAUCACCCAUGUGACGG [Eternabot (L1) Solution 42] (Eterna round: R97, puzzle: Exclusion 4) | 348 nM |  | 89.7 nM |  |  | 
AAAAGAGGAGGAUAUGCAAACAAUGUAAAAGUGAAAGUAAAACAUGAGGAUCACCCAUGUAGAAGGCCUGAAAA [nah] (puzzle: Exclusion 2) |  |  |  | 20.4 nM | 20 nM | 20.2 nM
AAGAGGUCAGGAUAUACGGAGAGAGGGAGUUGGUGAGGGUAACAUGAGGAUCACCCAUGUAGAAGGGACUAAGA [JR_Exclu2_Sub078] (puzzle: Exclusion 2) |  |  |  | 22.4 nM |  | 
UUCGGCGCAGGAUAUACAGUUUUGUGUUGAAUCGGCGCGAAACAUGAGGAUCACCCAUGUAGAAGGGUGUUGAA [-24.2, -22.3 kcal, A 27%] (Eterna round: R97, puzzle: Exclusion 2) | 736 nM |  | 1220 nM |  |  | 

Sequence | apparent KD of MS2 coat protein (input ligand: FMN 200 uM) | apparent KD of MS2 coat protein [1] | apparent KD of MS2 coat protein (input ligand: none) | apparent KD of MS2 coat protein [2] | apparent KD of MS2 coat protein [3] | apparent KD of MS2 coat protein [4]
GUCGAUGUCAAAGGAUAUCAGCACGUUUAGUGCUGAGAAGGUUGAACAUGAGGAUCACCCAUGUAGAUCAUUAACGACUUAAUU [ENG1/10-A1] (Eterna round: R96, puzzle: Exclusion NG 1) | 44.5 nM | 15.7 nM | 20.7 nM |  |  | 
GGUGUGAGGCAGGAUAUGCAAUAUGUAAGUAAUGCAGAAGGGUCUACAUGAGGAUCACCCAUGUGUGCGGUAGA [Ex6 #3] (Eterna round: R97, puzzle: Exclusion 6) | 251 nM |  | 140 nM |  |  | 
AGUCCACUUACAAGCUUUUACAUGAGGAUCACCCAUGUGUGGGACCCUAAGGGUGCUCAUGACCGCUCCAUACUCUC [Eternabot (L1) Solution 4] (Eterna round: R97, puzzle: Sensor, turn-off variant 1) | 240 nM |  | 254 nM |  |  | 
UUUCCCUGGCAAGGAUAUCCUGUGCGGUUCCGGCUCGUGUCUGUUACAUGAGGAUCACCCAUGUGGGAGAAGGUGCCUGUGGCU [Design 91] (Eterna round: R96, puzzle: Exclusion NG 2) |  | 47.4 nM |  |  |  | 
GAUUGACAUGAGGAUCACCCAUGUGAGGAUAUCGGCUGGACCGUGUUGGCUUCCGUCUCGAGAAGGCGCAUAGG [Exclusion 1 V43] (puzzle: Exclusion 1) |  |  |  | 39.7 nM | 137 nM | 44.4 nM
CAACAGGGAGGAUAUACAUGAGGAUCACCCAUGUUCGAGCGUCCUUGAACUACCUCUGGUAGAAGGCCCACACG [Bibiorbi] (Eterna round: R97, puzzle: Exclusion 3) | 147 nM |  | 56.9 nM |  |  | 
UUUUUCUGGCAAGGAUAUCCUGUGCGGUUCCGGCUCGUGUCUGUUACAUGAGGAUCACCCAUGUGGGAGAAGGUGCCUGUGGUU [Design 88] (Eterna round: R96, puzzle: Exclusion NG 2) | 94.2 nM | 26.9 nM | 35.3 nM |  |  | 
UUAUACGUUGAGGAUAUGCGAUUUAGUAUAGUUGUAGAAGGCGAUACAUGAGGAUCACCCAUGUUUAUGGGCAU [LRO-Ex6-08] (puzzle: Exclusion 6) |  |  |  | 268 nM |  | 
GCCGAAAAAGUGAGGAUAUACCUAUGGAUACAUAGGUAGAAGGCACAUGAGGAUCACCCAUGUAUCCUAACGGC [Eli bmx4 4.28] (Eterna round: R97, puzzle: Brourd's mod of Exclusion 4) | 362 nM |  | 29 nM |  |  | 
GUGUACAGAGGAUAUACUUAUGGAGUUACGAAAGUAACUUCACAUGAGGAUCACCCAUGUAGAAGGCUGUACAC [Dot plot directed v10] (puzzle: Exclusion 2) |  |  |  | 25.9 nM |  | 
AAAAAACAAGCUUUUUGAAACAUGAGGAUCACCCAUGUCUUAUAAAAUAAAAAUAAAAAUAAAAAUAAAAUAAAAAA [Sensor V2: 80 Random] (Eterna round: R96, puzzle: Sensor v2, turn-off variant) | 36.2 nM | 67.9 nM | 37.4 nM |  |  | 
AUGUUACAUGAGGAUCACCCAUGUGAGGAUAUGAGUCAGUCACGGUGACGUGGCUGACUCAGAAGGCACAAAGG [JL-ex1-4.38 salish99 mod] (Eterna round: R97, puzzle: Exclusion 1) | 754 nM |  | 180 nM |  |  | 
GGCUAGUGAGGAUAUACGUGCACUCCUCAGUCGCCAGUCGGACAUGAGGAUCACCCAUGUAGAAGGUAUCGGCA [Qusoceus] (puzzle: Exclusion 2) |  |  |  | 24 nM |  | 
CCGGAAUUGCAGGAUAUAGGAGUCGAUAGACACCUAGAAGGGCAGACAUGAGGAUCACCCAUGUGUCCUACCGG [Fiskers Ex 6 - 84] (puzzle: Exclusion 6) |  |  |  | 17.4 nM |  | 
ACCAGUGGAGGAUAUACAUGAGGAUCACCCAUGUGUUGAAUAGGUGGAGAACCACAAAGUAGAAGGCCACUGGA [jl-ex3-4.79 jandersonlee automod] (Eterna round: R97, puzzle: Exclusion 3) | 1000 nM |  | 76.6 nM |  |  | 
AAUACACAUGAGGAUCACCCAUGUCAGGAUAUGCGCAGACAGACAGACAGACAGACGAGCAGAAGGGAUAGGAA [Excls1-IV] (puzzle: Exclusion 1) |  |  |  | 67.5 nM | 54 nM | 49.3 nM
CAUACACAUGAGGAUCACCCAUGUGAGGAUAUGAAUACGUUGUCCGUAGGCGACGUGAUCAGAAGGCGCUUGGU [Mat - Mod of JL D100] (puzzle: Exclusion 1) |  |  |  | 44 nM |  | 
